What follows are sequences tested on Escherichia coli TOP10 (assay: shrunken log2 fold change of peptide-encoding DNA abundance (4.5 h post-induction vs induction); higher = less antimicrobial activity (less host growth inhibition)). Conditions: time post-induction: 4.5 h; library: site-saturation at positions 5, 18, 19, 20.
With RRIRDRPPRLPRPRPRPRQKPRP the “shrunken log2 fold change” value was 0.56. In the case of RRIRPRPPRLPRPRPRPLVNPRP, the “shrunken log2 fold change” value is reported as -0.549. RRIRNRPPRLPRPRPRPVLRPRP was tested, and the “shrunken log2 fold change” value was 0.00524. RRIRWRPPRLPRPRPRPSVHPRP was tested, and the “shrunken log2 fold change” value was -0.136. In the case of RRIRCRPPRLPRPRPRPDCGPRP, the “shrunken log2 fold change” value is reported as -0.169. RRIRHRPPRLPRPRPRPDMNPRP was tested, and the “shrunken log2 fold change” value was -0.178. For RRIRKRPPRLPRPRPRPEDWPRP, the “shrunken log2 fold change” value was 2.01. In the case of RRIRVRPPRLPRPRPRPIMFPRP, the “shrunken log2 fold change” value is reported as -0.0691. RRIRARPPRLPRPRPRPKHDPRP was tested, and the “shrunken log2 fold change” value was 0.263. With RRIRWRPPRLPRPRPRPWHIPRP the “shrunken log2 fold change” value was 0.106. RRIRKRPPRLPRPRPRPPHIPRP was tested, and the “shrunken log2 fold change” value was 0.41. RRIRGRPPRLPRPRPRPCDWPRP was tested, and the “shrunken log2 fold change” value was 0.519. For RRIRWRPPRLPRPRPRPPWQPRP, the “shrunken log2 fold change” value was 0.289. With RRIRVRPPRLPRPRPRPNVDPRP the “shrunken log2 fold change” value was -0.0826. With RRIRQRPPRLPRPRPRPPTNPRP the “shrunken log2 fold change” value was 0.201. RRIRTRPPRLPRPRPRPKNDPRP was tested, and the “shrunken log2 fold change” value was -0.362. For RRIRIRPPRLPRPRPRPPMMPRP, the “shrunken log2 fold change” value was 0.568. In the case of RRIRRRPPRLPRPRPRPEALPRP, the “shrunken log2 fold change” value is reported as 0.115. In the case of RRIRGRPPRLPRPRPRPHQTPRP, the “shrunken log2 fold change” value is reported as 0.242. With RRIRFRPPRLPRPRPRPPTHPRP the “shrunken log2 fold change” value was 0.22. In the case of RRIRMRPPRLPRPRPRPSPMPRP, the “shrunken log2 fold change” value is reported as 0.369. For RRIRNRPPRLPRPRPRPTTGPRP, the “shrunken log2 fold change” value was 0.0259. RRIRWRPPRLPRPRPRPKMQPRP was tested, and the “shrunken log2 fold change” value was 0.329. For RRIRGRPPRLPRPRPRPKTTPRP, the “shrunken log2 fold change” value was 0.521. With RRIRNRPPRLPRPRPRPPGHPRP the “shrunken log2 fold change” value was 0.463. For RRIRCRPPRLPRPRPRPQFTPRP, the “shrunken log2 fold change” value was -0.427. In the case of RRIRIRPPRLPRPRPRPDNNPRP, the “shrunken log2 fold change” value is reported as -0.376. RRIRFRPPRLPRPRPRPAAIPRP was tested, and the “shrunken log2 fold change” value was 1.19. For RRIRRRPPRLPRPRPRPEDLPRP, the “shrunken log2 fold change” value was -0.00437. In the case of RRIRDRPPRLPRPRPRPNAAPRP, the “shrunken log2 fold change” value is reported as 0.0798. In the case of RRIRRRPPRLPRPRPRPSDAPRP, the “shrunken log2 fold change” value is reported as -0.0697. RRIRERPPRLPRPRPRPVLKPRP was tested, and the “shrunken log2 fold change” value was 0.0458. For RRIRLRPPRLPRPRPRPAIHPRP, the “shrunken log2 fold change” value was -0.192. With RRIRSRPPRLPRPRPRPWEYPRP the “shrunken log2 fold change” value was -0.0607. With RRIRMRPPRLPRPRPRPNAYPRP the “shrunken log2 fold change” value was 0.311. In the case of RRIRIRPPRLPRPRPRPEIRPRP, the “shrunken log2 fold change” value is reported as -0.0172. With RRIRFRPPRLPRPRPRPPCRPRP the “shrunken log2 fold change” value was 0.172. RRIRIRPPRLPRPRPRPRTSPRP was tested, and the “shrunken log2 fold change” value was 0.0339. With RRIRFRPPRLPRPRPRPGVKPRP the “shrunken log2 fold change” value was -0.0657. RRIRNRPPRLPRPRPRPPYEPRP was tested, and the “shrunken log2 fold change” value was -0.18. RRIRARPPRLPRPRPRPYLAPRP was tested, and the “shrunken log2 fold change” value was -0.594. In the case of RRIRLRPPRLPRPRPRPSMKPRP, the “shrunken log2 fold change” value is reported as -0.252. With RRIRMRPPRLPRPRPRPQHWPRP the “shrunken log2 fold change” value was 0.155. For RRIRTRPPRLPRPRPRPKCNPRP, the “shrunken log2 fold change” value was -0.221. For RRIRPRPPRLPRPRPRPTTLPRP, the “shrunken log2 fold change” value was -0.0741. RRIRHRPPRLPRPRPRPYTKPRP was tested, and the “shrunken log2 fold change” value was 0.0561. For RRIRWRPPRLPRPRPRPEGRPRP, the “shrunken log2 fold change” value was 0.65. In the case of RRIRRRPPRLPRPRPRPCLQPRP, the “shrunken log2 fold change” value is reported as -0.0554. In the case of RRIRQRPPRLPRPRPRPLAMPRP, the “shrunken log2 fold change” value is reported as 0.294. For RRIRYRPPRLPRPRPRPGVGPRP, the “shrunken log2 fold change” value was -0.103. With RRIRARPPRLPRPRPRPGQVPRP the “shrunken log2 fold change” value was 0.402. RRIRNRPPRLPRPRPRPPHCPRP was tested, and the “shrunken log2 fold change” value was 0.0234. RRIRWRPPRLPRPRPRPEQLPRP was tested, and the “shrunken log2 fold change” value was 0.00937. For RRIRLRPPRLPRPRPRPWKHPRP, the “shrunken log2 fold change” value was -0.0177. In the case of RRIRRRPPRLPRPRPRPTDPPRP, the “shrunken log2 fold change” value is reported as 0.246. RRIRRRPPRLPRPRPRPQCGPRP was tested, and the “shrunken log2 fold change” value was 0.317. With RRIRRRPPRLPRPRPRPKSIPRP the “shrunken log2 fold change” value was -0.0792. RRIRVRPPRLPRPRPRPLEEPRP was tested, and the “shrunken log2 fold change” value was 0.0793. For RRIRDRPPRLPRPRPRPLFTPRP, the “shrunken log2 fold change” value was 0.0222. With RRIRCRPPRLPRPRPRPNCFPRP the “shrunken log2 fold change” value was -0.0988. For RRIRQRPPRLPRPRPRPQEMPRP, the “shrunken log2 fold change” value was -0.119. For RRIRVRPPRLPRPRPRPFWVPRP, the “shrunken log2 fold change” value was 0.421. For RRIRMRPPRLPRPRPRPQWYPRP, the “shrunken log2 fold change” value was -0.161. RRIRFRPPRLPRPRPRPGSMPRP was tested, and the “shrunken log2 fold change” value was -0.255. For RRIRERPPRLPRPRPRPFFFPRP, the “shrunken log2 fold change” value was 0.0253. RRIRRRPPRLPRPRPRPTDEPRP was tested, and the “shrunken log2 fold change” value was 0.355. For RRIRWRPPRLPRPRPRPFNVPRP, the “shrunken log2 fold change” value was -0.114. For RRIRNRPPRLPRPRPRPGCLPRP, the “shrunken log2 fold change” value was -0.000466. RRIRLRPPRLPRPRPRPFRIPRP was tested, and the “shrunken log2 fold change” value was 0.0742. RRIRKRPPRLPRPRPRPRVLPRP was tested, and the “shrunken log2 fold change” value was 0.498. With RRIRRRPPRLPRPRPRPMTEPRP the “shrunken log2 fold change” value was 0.0575. In the case of RRIRNRPPRLPRPRPRPFDGPRP, the “shrunken log2 fold change” value is reported as -0.0509. For RRIRERPPRLPRPRPRPRAPPRP, the “shrunken log2 fold change” value was 0.524. For RRIRGRPPRLPRPRPRPCQAPRP, the “shrunken log2 fold change” value was -0.0272. For RRIRHRPPRLPRPRPRPHPLPRP, the “shrunken log2 fold change” value was -0.0572.
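Note: peptides expressed intracellularly from a pBAD plasmid library in pooled LB shake-flask culture, induced with 0.3% L-arabinose, DNA abundance read by NGS, three biological replicates, DESeq2 with apeglm shrinkage.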
